# Data from US20110195900A1, “PEPTIDIC PTH RECEPTOR AGONISTS” (FERRING B.V., priority 2008, published 2011).
# Non-standard residues stand in square brackets, D forms with d. No end group written: not given here. 1Nal = N[C@@H](Cc1cccc2ccccc12)C(=O)O; 2Nal = N[C@@H](Cc1ccc2ccccc2c1)C(=O)O; β3hI = CC[C@H](C)[C@H](N)CC(=O)O; Nle = CCCC[C@H](N)C(=O)O; Aib = CC(C)(N)C(=O)O; βAla = NCCC(=O)O
# B1: [Aib^1, Nle^8,18, β-Ala^17, 2-Nal^23] hPTH (1-34)-NH2 (peptide)
# peptide: [Aib]VSEIQL[Nle]HNLGKHLN[βAla][Nle]ERVE[2Nal]LRKKLQDVHNF-NH2
# modifications: N-terminus assumed
# SMILES: CCCC[C@H](NC(=O)CCNC(=O)[C@H](CC(N)=O)NC(=O)[C@H](CC(C)C)NC(=O)[C@H](Cc1c[nH]cn1)NC(=O)[C@H](CCCCN)NC(=O)CNC(=O)[C@H](CC(C)C)NC(=O)[C@H](CC(N)=O)NC(=O)[C@H](Cc1c[nH]cn1)NC(=O)[C@H](CCCC)NC(=O)[C@H](CC(C)C)NC(=O)[C@H](CCC(N)=O)NC(=O)[C@@H](NC(=O)[C@H](CCC(=O)O)NC(=O)[C@H](CO)NC(=O)[C@@H](NC(=O)C(C)(C)N)C(C)C)[C@@H](C)CC)C(=O)N[C@@H](CCC(=O)O)C(=O)N[C@@H](CCCNC(=N)N)C(=O)N[C@H](C(=O)N[C@@H](CCC(=O)O)C(=O)N[C@@H](Cc1ccc2ccccc2c1)C(=O)N[C@@H](CC(C)C)C(=O)N[C@@H](CCCNC(=N)N)C(=O)N[C@@H](CCCCN)C(=O)N[C@@H](CCCCN)C(=O)N[C@@H](CC(C)C)C(=O)N[C@@H](CCC(N)=O)C(=O)N[C@@H](CC(=O)O)C(=O)N[C@H](C(=O)N[C@@H](Cc1c[nH]cn1)C(=O)N[C@@H](CC(N)=O)C(=O)N[C@@H](Cc1ccccc1)C(N)=O)C(C)C)C(C)C
# B2: [Nle^8, β-hIle^18, 1-Nal^23] hPTH (1-34)-OH (peptide)
# peptide: SVSEIQL[Nle]HNLGKHLNS[β3hI]ERVE[1Nal]LRKKLQDVHNF-OH
# modifications: N-terminus assumed
# SMILES: CCCC[C@H](NC(=O)[C@H](CC(C)C)NC(=O)[C@H](CCC(N)=O)NC(=O)[C@@H](NC(=O)[C@H](CCC(=O)O)NC(=O)[C@H](CO)NC(=O)[C@@H](NC(=O)[C@@H](N)CO)C(C)C)[C@@H](C)CC)C(=O)N[C@@H](Cc1c[nH]cn1)C(=O)N[C@@H](CC(N)=O)C(=O)N[C@@H](CC(C)C)C(=O)NCC(=O)N[C@@H](CCCCN)C(=O)N[C@@H](Cc1c[nH]cn1)C(=O)N[C@@H](CC(C)C)C(=O)N[C@@H](CC(N)=O)C(=O)N[C@@H](CO)C(=O)N[C@H](CC(=O)N[C@@H](CCC(=O)O)C(=O)N[C@@H](CCCNC(=N)N)C(=O)N[C@H](C(=O)N[C@@H](CCC(=O)O)C(=O)N[C@@H](Cc1cccc2ccccc12)C(=O)N[C@@H](CC(C)C)C(=O)N[C@@H](CCCNC(=N)N)C(=O)N[C@@H](CCCCN)C(=O)N[C@@H](CCCCN)C(=O)N[C@@H](CC(C)C)C(=O)N[C@@H](CCC(N)=O)C(=O)N[C@@H](CC(=O)O)C(=O)N[C@H](C(=O)N[C@@H](Cc1c[nH]cn1)C(=O)N[C@@H](CC(N)=O)C(=O)N[C@@H](Cc1ccccc1)C(=O)O)C(C)C)C(C)C)[C@@H](C)CC
# B3: [Ala^1, Nle^8,18, β-Ala^17, 1-Nal^23, Leu^27] hPTH (1-34)-NH2 (peptide)
# peptide: AVSEIQL[Nle]HNLGKHLN[βAla][Nle]ERVE[1Nal]LRKLLQDVHNF-NH2
# B4: [Nle^8,18, β-Ala^19, 1-Nal^23, Leu^27] hPTH-(1-34)-NH2 (peptide)
# peptide: SVSEIQL[Nle]HNLGKHLNS[Nle][βAla]RVE[1Nal]LRKLLQDVHNF-NH2
# modifications: N-terminus assumed
# SMILES: CCCC[C@H](NC(=O)[C@H](CO)NC(=O)[C@H](CC(N)=O)NC(=O)[C@H](CC(C)C)NC(=O)[C@H](Cc1c[nH]cn1)NC(=O)[C@H](CCCCN)NC(=O)CNC(=O)[C@H](CC(C)C)NC(=O)[C@H](CC(N)=O)NC(=O)[C@H](Cc1c[nH]cn1)NC(=O)[C@H](CCCC)NC(=O)[C@H](CC(C)C)NC(=O)[C@H](CCC(N)=O)NC(=O)[C@@H](NC(=O)[C@H](CCC(=O)O)NC(=O)[C@H](CO)NC(=O)[C@@H](NC(=O)[C@@H](N)CO)C(C)C)[C@@H](C)CC)C(=O)NCCC(=O)N[C@@H](CCCNC(=N)N)C(=O)N[C@H](C(=O)N[C@@H](CCC(=O)O)C(=O)N[C@@H](Cc1cccc2ccccc12)C(=O)N[C@@H](CC(C)C)C(=O)N[C@@H](CCCNC(=N)N)C(=O)N[C@@H](CCCCN)C(=O)N[C@@H](CC(C)C)C(=O)N[C@@H](CC(C)C)C(=O)N[C@@H](CCC(N)=O)C(=O)N[C@@H](CC(=O)O)C(=O)N[C@H](C(=O)N[C@@H](Cc1c[nH]cn1)C(=O)N[C@@H](CC(N)=O)C(=O)N[C@@H](Cc1ccccc1)C(N)=O)C(C)C)C(C)C
# B5: [Ala^1, Nle^8,18, β-Ala^17, 2-Nal^23] hPTH (1-34)-NH2 (peptide)
# peptide: AVSEIQL[Nle]HNLGKHLN[βAla][Nle]ERVE[2Nal]LRKKLQDVHNF-NH2
# modifications: N-terminus assumed
# SMILES: CCCC[C@H](NC(=O)CCNC(=O)[C@H](CC(N)=O)NC(=O)[C@H](CC(C)C)NC(=O)[C@H](Cc1c[nH]cn1)NC(=O)[C@H](CCCCN)NC(=O)CNC(=O)[C@H](CC(C)C)NC(=O)[C@H](CC(N)=O)NC(=O)[C@H](Cc1c[nH]cn1)NC(=O)[C@H](CCCC)NC(=O)[C@H](CC(C)C)NC(=O)[C@H](CCC(N)=O)NC(=O)[C@@H](NC(=O)[C@H](CCC(=O)O)NC(=O)[C@H](CO)NC(=O)[C@@H](NC(=O)[C@H](C)N)C(C)C)[C@@H](C)CC)C(=O)N[C@@H](CCC(=O)O)C(=O)N[C@@H](CCCNC(=N)N)C(=O)N[C@H](C(=O)N[C@@H](CCC(=O)O)C(=O)N[C@@H](Cc1ccc2ccccc2c1)C(=O)N[C@@H](CC(C)C)C(=O)N[C@@H](CCCNC(=N)N)C(=O)N[C@@H](CCCCN)C(=O)N[C@@H](CCCCN)C(=O)N[C@@H](CC(C)C)C(=O)N[C@@H](CCC(N)=O)C(=O)N[C@@H](CC(=O)O)C(=O)N[C@H](C(=O)N[C@@H](Cc1c[nH]cn1)C(=O)N[C@@H](CC(N)=O)C(=O)N[C@@H](Cc1ccccc1)C(N)=O)C(C)C)C(C)C
# B6: [Nle^8, β-hIle^18, 1-Nal^23, Leu^27] hPTH (1-31)-OH (peptide)
# peptide: SVSEIQL[Nle]HNLGKHLNS[β3hI]ERVE[1Nal]LRKLLQDV-OH
# B7: [Nle^8,18, β-Ala^19, 1-Nal^23] hPTH (1-34)-NH2 (peptide)
# peptide: SVSEIQL[Nle]HNLGKHLNS[Nle][βAla]RVE[1Nal]LRKKLQDVHNF-NH2
# modifications: N-terminus assumed
# SMILES: CCCC[C@H](NC(=O)[C@H](CO)NC(=O)[C@H](CC(N)=O)NC(=O)[C@H](CC(C)C)NC(=O)[C@H](Cc1c[nH]cn1)NC(=O)[C@H](CCCCN)NC(=O)CNC(=O)[C@H](CC(C)C)NC(=O)[C@H](CC(N)=O)NC(=O)[C@H](Cc1c[nH]cn1)NC(=O)[C@H](CCCC)NC(=O)[C@H](CC(C)C)NC(=O)[C@H](CCC(N)=O)NC(=O)[C@@H](NC(=O)[C@H](CCC(=O)O)NC(=O)[C@H](CO)NC(=O)[C@@H](NC(=O)[C@@H](N)CO)C(C)C)[C@@H](C)CC)C(=O)NCCC(=O)N[C@@H](CCCNC(=N)N)C(=O)N[C@H](C(=O)N[C@@H](CCC(=O)O)C(=O)N[C@@H](Cc1cccc2ccccc12)C(=O)N[C@@H](CC(C)C)C(=O)N[C@@H](CCCNC(=N)N)C(=O)N[C@@H](CCCCN)C(=O)N[C@@H](CCCCN)C(=O)N[C@@H](CC(C)C)C(=O)N[C@@H](CCC(N)=O)C(=O)N[C@@H](CC(=O)O)C(=O)N[C@H](C(=O)N[C@@H](Cc1c[nH]cn1)C(=O)N[C@@H](CC(N)=O)C(=O)N[C@@H](Cc1ccccc1)C(N)=O)C(C)C)C(C)C
# B8: [Nle^8, β-hIle^18, 1-Nal^23, Leu^27] hPTH (1-34)-OH (peptide)
# peptide: SVSEIQL[Nle]HNLGKHLNS[β3hI]ERVE[1Nal]LRKLLQDVHNF-OH
# Target: human parathyroid hormone receptor 2 (human, UniProt P49190)
# Assay: cell-based or functional assay
row,Binder,"hPTHR-2 EC50 (nM), luciferase reporter gene assay [nM]"
1,B1,46
2,B2,26
3,B3,89
4,B4,18
5,B5,95
6,B6,76
7,B7,11
8,B8,23

# Target: human parathyroid hormone receptor 1 (human, UniProt Q03431)
# Assay: cell-based or functional assay
row,Binder,"hPTHR-1 EC50 (nM), CRE-luciferase reporter gene assay [nM]"
1,B1,0.22
2,B2,0.21
3,B3,0.2
4,B4,0.26
5,B5,0.22
6,B6,0.09
7,B7,0.21
8,B8,0.14
